# Laboratory results from US20110150901A1 (published 2011).
# Experiments:
# huR4 [1] = assay: ELISA
# [2] = biological target: T1, recombinant human β-Klotho (UniProt Q86Z14 53-996); assay: ELISA
# [3] = biological target: T1, recombinant human β-Klotho; assay: binding
# [4] = biological target: T1, recombinant human β-Klotho; assay: ELISA; remark: listed apart in the source
# huR1b = assay: ELISA
# huR4 [5] = assay: Alphascreen inhibition; FGF21/BK+R4
# T1 sequence (Q86Z14 53-996): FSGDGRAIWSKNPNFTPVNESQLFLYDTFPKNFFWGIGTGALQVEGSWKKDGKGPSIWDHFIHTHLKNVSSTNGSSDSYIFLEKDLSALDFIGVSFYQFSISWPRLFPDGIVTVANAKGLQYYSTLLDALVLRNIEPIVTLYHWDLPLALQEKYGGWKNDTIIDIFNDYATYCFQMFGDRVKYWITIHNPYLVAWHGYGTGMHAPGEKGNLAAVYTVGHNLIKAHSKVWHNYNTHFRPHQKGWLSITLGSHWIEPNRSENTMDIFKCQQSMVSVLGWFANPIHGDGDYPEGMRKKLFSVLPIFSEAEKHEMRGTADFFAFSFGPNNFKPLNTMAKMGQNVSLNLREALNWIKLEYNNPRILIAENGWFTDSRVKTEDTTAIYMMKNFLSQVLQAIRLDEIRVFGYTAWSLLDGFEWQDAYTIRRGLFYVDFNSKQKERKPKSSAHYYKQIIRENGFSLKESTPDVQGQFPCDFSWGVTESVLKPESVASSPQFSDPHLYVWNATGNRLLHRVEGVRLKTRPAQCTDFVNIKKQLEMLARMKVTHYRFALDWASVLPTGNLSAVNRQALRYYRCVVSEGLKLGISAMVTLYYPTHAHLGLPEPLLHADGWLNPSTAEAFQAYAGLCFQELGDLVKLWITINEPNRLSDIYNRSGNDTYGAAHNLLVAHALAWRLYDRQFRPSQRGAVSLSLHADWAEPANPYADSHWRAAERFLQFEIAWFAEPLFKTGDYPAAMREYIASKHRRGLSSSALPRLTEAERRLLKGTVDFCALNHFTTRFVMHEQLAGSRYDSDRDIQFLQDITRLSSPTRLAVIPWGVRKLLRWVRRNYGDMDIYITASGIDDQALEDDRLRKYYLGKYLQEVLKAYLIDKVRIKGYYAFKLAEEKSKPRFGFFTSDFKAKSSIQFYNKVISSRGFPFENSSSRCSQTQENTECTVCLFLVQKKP
Binder,EC50 (huR4 [1]) [nM],EC50 [3] [nM],further results
CRLNEFPCGSGSCISLHWVCDSVPDCRDDSDETDCPERT (designed binder) [R1c_M33],~300,,
β-Klotho walked dimer bKWD01 (designed binder) CLPDEFQCGSGRCIPQHWLCDGLNDCGDGSDEPPAHCSAPASEPPGSLCRAGEFRCSNGRCVPLTWLCDGEDDCQDNSDEKNCAQPT,,0.05,EC50 [2]: < 0.4 nM
BK_RI_D05 (designed binder) CAAGQFRCHNSDTCLPGAWVCDGDNDCGDNSDEASCQKRTCHSFNQFECRNGQCIPLHLVCDGVPDCGDNSDETDCGDSHILPFSTPGPST,45.1,,
β-Klotho-binding monomer bKmutM28 (designed binder) CPWFHHFKCRNGQRIPLHLVCDGVPDCGDDSDETDCGDSHILPFSTPGPST,,,EC50 [4]: 214 nM
CGAGQFTCRDTNICISRAWRCDGVDDCEDNSDEADCSQDPEFHKV (designed binder) [R1c_M08],,,EC50 (huR1b): 17 nM
β-Klotho walked dimer BK_R1c_D15 (designed binder) CLPDEFQCGSGRCIPQTWVCDGLNDCGDGSDEPPAHCSAPASEPPGSLCRSNQFTCGNGNCIPQPWVCDGEDDCGDDSDEESCKEHT,,9.1,
CLSDQFTCRSTNICLPLQWVCDGDDDCEDNSDEEDCSAPASEPPGSL (designed binder) [R1c_M31],~300,,EC50 (huR1b): 112 nM; IC50 (huR4 [5]): 5000 nM
β-Klotho walked dimer BK_R1c_D14 (designed binder) CLPDEFQCGSGRCIPQTWVCDGLNDCGDGSDEPPAHCSAPASEPPGSLCRSDEFRCGNGRCIPLTWVCDGEDDCQDSSDETGCTTPGHT,,23,
